Reference: doi:10.1101/2019.12.13.867358 (bioRxiv, 2019)

Molecular target: T1, Smc4 (S. cerevisiae, UniProt Q12267 1-1418)
T1 sequence (looked up): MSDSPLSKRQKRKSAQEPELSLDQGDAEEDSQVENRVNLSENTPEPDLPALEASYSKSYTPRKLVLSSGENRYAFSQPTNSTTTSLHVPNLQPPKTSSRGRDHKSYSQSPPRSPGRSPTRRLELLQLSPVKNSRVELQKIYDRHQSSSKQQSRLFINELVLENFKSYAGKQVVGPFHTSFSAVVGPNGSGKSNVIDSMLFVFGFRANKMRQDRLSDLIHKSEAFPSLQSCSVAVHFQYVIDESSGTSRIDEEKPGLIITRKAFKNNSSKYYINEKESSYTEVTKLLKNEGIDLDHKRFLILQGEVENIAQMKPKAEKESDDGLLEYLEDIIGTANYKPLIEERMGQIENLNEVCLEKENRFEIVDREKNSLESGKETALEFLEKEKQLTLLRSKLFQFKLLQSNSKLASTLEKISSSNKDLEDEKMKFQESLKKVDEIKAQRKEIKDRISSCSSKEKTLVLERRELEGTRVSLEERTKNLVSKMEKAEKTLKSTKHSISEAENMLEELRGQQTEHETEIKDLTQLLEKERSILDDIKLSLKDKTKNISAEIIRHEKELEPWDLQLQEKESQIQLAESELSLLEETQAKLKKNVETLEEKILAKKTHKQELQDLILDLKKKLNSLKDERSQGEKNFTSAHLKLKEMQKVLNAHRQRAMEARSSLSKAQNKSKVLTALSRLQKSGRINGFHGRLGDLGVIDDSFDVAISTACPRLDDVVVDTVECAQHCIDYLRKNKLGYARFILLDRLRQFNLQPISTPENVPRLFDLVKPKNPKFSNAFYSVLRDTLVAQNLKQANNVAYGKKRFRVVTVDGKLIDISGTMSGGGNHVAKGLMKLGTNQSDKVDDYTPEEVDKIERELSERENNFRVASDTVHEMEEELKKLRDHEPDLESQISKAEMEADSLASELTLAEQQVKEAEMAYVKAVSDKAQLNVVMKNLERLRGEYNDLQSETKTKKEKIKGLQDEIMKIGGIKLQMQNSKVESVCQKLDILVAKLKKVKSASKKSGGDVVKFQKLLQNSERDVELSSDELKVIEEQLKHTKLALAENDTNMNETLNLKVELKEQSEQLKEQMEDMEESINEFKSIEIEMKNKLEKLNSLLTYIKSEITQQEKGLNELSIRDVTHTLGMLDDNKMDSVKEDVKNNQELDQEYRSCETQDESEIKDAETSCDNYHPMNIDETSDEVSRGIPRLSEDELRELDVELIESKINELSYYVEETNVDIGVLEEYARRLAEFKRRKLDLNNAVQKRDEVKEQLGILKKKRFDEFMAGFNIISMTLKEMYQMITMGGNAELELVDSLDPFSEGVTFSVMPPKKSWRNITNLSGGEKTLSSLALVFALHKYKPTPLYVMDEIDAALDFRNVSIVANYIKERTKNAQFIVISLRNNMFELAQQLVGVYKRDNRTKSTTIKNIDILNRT
Test: AFM imaging

binding result: binds
B1: Smc2 (natural protein, S. cerevisiae, UniProt P38989 1-1170, looked up)
chain: MKVEELIIDGFKSYATRTVITDWDPQFNAITGLNGSGKSNILDAICFVLGIASMSTVRASSLQDLIYKRGQAGVTKASVTIVFDNTDKSNSPIGFTNSPQISVTRQVVLGGTSKYLINGHRAPQQSVLQLFQSVQLNINNPNFLIMQGKITKVLNMKPSEILSLIEEAAGTKMFEDRREKAERTMSKKETKLQENRTLLTEEIEPKLEKLRNEKRMFLEFQSTQTDLEKTERIVVSYEYYNIKHKHTSIRETLENGETRMKMLNEFVKKTSEEIDSLNEDVEEIKLQKEKELHKEGTISKLENKENGLLNEISRLKTSLSIKVENLNDTTEKSKALESEIASSSAKLIEKKSAYANTEKDYKMVQEQLSKQRDLYKRKEELVSTLTTGISSTGAADGGYNAQLAKAKTELNEVSLAIKKSSMKMELLKKELLTIEPKLKEATKDNELNVKHVKQCQETCDKLRARLVEYGFDPSRIKDLKQREDKLKSHYYQTCKNSEYLKRRVTNLEFNYTKPYPNFEASFVHGVVGQLFQIDNDNIRYATALQTCAGGRLFNVVVQDSQTATQLLERGRLRKRVTIIPLDKIYTRPISSQVLDLAKKIAPGKVELAINLIRFDESITKAMEFIFGNSLICEDPETAKKITFHPKIRARSITLQGDVYDPEGTLSGGSRNTSESLLVDIQKYNQIQKQIETIQADLNHVTEELQTQYATSQKTKTIQSDLNLSLHKLDLAKRNLDANPSSQIIARNEEILRDIGECENEIKTKQMSLKKCQEEVSTIEKDMKEYDSDKGSKLNELKKELKLLAKELEEQESESERKYDLFQNLELETEQLSSELDSNKTLLHNHLKSIESLKLENSDLEGKIRGVEDDLVTVQTELNEEKKRLMDIDDELNELETLIKKKQDEKKSSELELQKLVHDLNKYKSNTNNMEKIIEDLRQKHEFLEDFDLVRNIVKQNEGIDLDTYRERSKQLNEKFQELRKKVNPNIMNMIENVEKKEAALKTMIKTIEKDKMKIQETISKLNEYKRETLVKTWEKVTLDFGNIFADLLPNSFAKLVPCEGKDVTQGLEVKVKLGNIWKESLIELSGGQRSLIALSLIMALLQFRPAPMYILDEVDAALDLSHTQNIGHLIKTRFKGSQFIVVSLKEGMFANANRVFRTRFQDGTSVVSIM
